Measurements published in US20260098095A1 (Hoffmann-La Roche, published 2026).
Where a chain is given by its changes, count along the chain named.

Experiments:
[1] = target: T1, HLA-A2/MAGE-A4 peptide MHC (pMHC) complex on cells (human); assay: cell-based or functional assay
[2] = target: T1, HLA-A2/MAGE-A4 peptide MHC (pMHC) …; assay: cell-based or functional assay; remark: listed apart in the source
[3] = target: T1, HLA-A2/MAGE-A4 peptide MHC (pMHC) …; assay: cell-based or functional assay; remark: listed apart in the source
[4] = target: T1, HLA-A2/MAGE-A4 peptide MHC (pMHC) …; assay: cell-based or functional assay; remark: listed apart in the source
[5] = target: pfkA (human); assay: cell-based or functional assay
[6] = target: DPYSL3 (human); assay: cell-based or functional assay
[7] = target: gutQ (human); assay: cell-based or functional assay
[8] = target: UBE2V2 (human); assay: cell-based or functional assay
[9] = target: DPYSL4 (human); assay: cell-based or functional assay
[10] = target: PIGG (human); assay: cell-based or functional assay
[11] = target: CRMP1 (human); assay: cell-based or functional assay
[12] = target: BNRF1 (human); assay: cell-based or functional assay
[13] = target: EDC3 (human); assay: cell-based or functional assay
[14] = target: FBXO34 (human); assay: cell-based or functional assay
[15] = target: SLC45A1 (human); assay: cell-based or functional assay
[16] = target: KEAP1 (human); assay: cell-based or functional assay
[17] = target: UNC80 (human); assay: cell-based or functional assay
[18] = target: VPS13D (human); assay: cell-based or functional assay
[19] = target: MAGEB2 (human); assay: cell-based or functional assay
[20] = target: ARF1 (human); assay: cell-based or functional assay
[21] = target: ARF3 (human); assay: cell-based or functional assay
[22] = target: URB1 (human); assay: cell-based or functional assay
[23] = target: GAPDHS (human); assay: cell-based or functional assay
[24] = target: CCS (human); assay: cell-based or functional assay
[25] = target: KDM1A (human); assay: cell-based or functional assay
[26] = target: DYNC1H1 (human); assay: cell-based or functional assay
[27] = target: MTOR (human); assay: cell-based or functional assay
[28] = target: PKP1 (human); assay: cell-based or functional assay
[29] = target: T9A (human); assay: cell-based or functional assay
[30] = target: V10A (human); assay: cell-based or functional assay
[31] = target: G1A (human); assay: cell-based or functional assay
[32] = target: V2A (human); assay: cell-based or functional assay
[33] = target: Y3A (human); assay: cell-based or functional assay
[34] = target: D4A (human); assay: cell-based or functional assay
[35] = target: G5A (human); assay: cell-based or functional assay
[36] = target: R6A (human); assay: cell-based or functional assay
[37] = target: E7A (human); assay: cell-based or functional assay
[38] = target: H8A (human); assay: cell-based or functional assay
[39] = target: T1, HLA-A2/MAGE-A4 peptide MHC (pMHC) …; assay: cell-based or functional assay; remark: listed apart in the source
[40] = target: T1, HLA-A2/MAGE-A4 peptide MHC (pMHC) …; assay: cell-based or functional assay; remark: listed apart in the source
[41] = target: T2, HLA-A2/MAGE-A4p230-239 complex (human); assay: SPR Biacore T200, antibody captured by anti-human Fc, pMHC complex as analyte, 25 C, 1:1 Langmuir fit
T2 construct: also called HLA-A2/MAGEp230-239
Procedure: The dissociation phase was monitored for 240 s and triggered by switching from the sample solution to HBS-EP+. The chip surface was regenerated after every cycle using an injection of 3M MgCl₂ at 10 μl/min for 30 sec. Bulk refractive index differences were corrected for by subtracting the response obtained on the reference flow cell which contains the anti-human Fc antibody, but without HLA-A2/MAGE-A4 antibody captured on it. The affinity constants were derived from the kinetic rate constants by fitting to a 1:1 Langmuir binding using the BIAeval software (GE Healthcare). The measurement was performed in triplicate with independent dilution series.

B1: Molecule U (bispecific antibody, V domains shown)
VH 1: QVQLQQSGGEVMKPGASVKLSCKATGYTFTGYWIEWIKQRPGHGLEWIGEILPGSGGTNYNEKFKGKATFTAHTSSNTAYMQLSSLTTEDSAIYYCARDSNSFTYWGQGTLVTVSS
VL 1: QIVLTQSPAIMSASPGEKVTITCSVSSSVDYIHWFQQKPGTSPKFWIYSTSILASGVPARFSGSGSGTSYSLTISRMEAEDAATYYCQQRSSYPPTFGSGTKLEIK
VH 2: EVQLVESGGGLVQPGGSLRLSCAASGYSFTGYTMNWVRQAPGKGLEWVALINPYKGVSTYNQKFKDRFTISVDKSKNTAYLQMNSLRAEDTAVYYCARSGYYGDSDWYFDVWGQGTLVTVSS
VL 2: DIQMTQSPSSLSASVGDRVTITCRASQDIRNYLNWYQQKPGKAPKLLIYYTSRLESGVPSRFSGSGSGTDYTLTISSLQPEDFATYYCQQGNTLPWTFGQGTKVEIK
How did the “EC50 (nM), T-cell mediated lysis of A375 cells, 48 h” value [1] turn out when B1 was run?
The value was 1.96 nM.

And the “EC50 (nM), T-cell mediated lysis of NCI-H2023 cells, 48 h” value [1]?
The value was 1.12 nM.

And the “EC50 (nM), T-cell mediated lysis of UMUC-3 cells, 48 h” value [1]?
The value was 0.45 nM.

B2: Molecule C (bispecific antibody, V domains shown)
VH 1: TQQLVESGGGLVQPGGSLRLSCAASGFSFSFDTMSWVRQAPGKGLEWVGSISPSGGSTYYNDNVLGRFTISRDNSKNTLYLQMNSLRAEDTAVYYCARDHGYFDMWGQGTLVTVSS
VL 1: DIQMTQSPSSLSASVGDRVTITCRASQSISSYLAWYQQKPGKAPKLLIYDASWLELGVPSRFSGSGSGTDFTLTISSLQPEDFATYYCQQYSSYPYTFGQGTKLEIK
VH 2: not shown
VL 2: QAVVTQEPSLTVSPGGTVTLTCGSSTGAVTTSNYANWVQEKPGQAFRGLIGGTNKRAPGTPARFSGSLLGGKAALTLSGAQPEDEAEYYCALWYSNLWVFGGGTKLTVL
B2 was tested. Which “EC50 [pM] 24 h, T-cell mediated lysis of MAGE-A4 peptide pulsed T2 cells” value [2] did it give?
Its value is 121 pM.

And the “EC50 [pM], activation of Jurkat-NFAT reporter cells (luminescence, 6 h) with MAGE-A4 peptide pulsed T2 cells” value [3]?
The value was 976 pM.

And the “EC50 [pM], T-cell mediated lysis of IM-9 cells, 24 h” value [4]?
Its value is 2740 pM.

What about the “EC50 [pM], T-cell mediated lysis of NCI-H1755 cells, 24 h” value [4] of the same binder?
Its value is 460 pM.

And the “% of MAGE-A4 signal, Jurkat-NFAT” value [5]?
Its value is 0.4%.

What about the “% of MAGE-A4 signal, Jurkat-NFAT” value [6] of the same binder?
Its value is 0.35%.

What about the “% of MAGE-A4 signal, Jurkat-NFAT” value [7] of the same binder?
The value was 0.36%.

And the “% of MAGE-A4 signal, Jurkat-NFAT” value [8]?
Its value is 0.52%.

And the “% of MAGE-A4 signal, Jurkat-NFAT” value [9]?
The value was 0.27%.

What about the “% of MAGE-A4 signal, Jurkat-NFAT” value [10] of the same binder?
Its value is 0.33%.

And the “% of MAGE-A4 signal, Jurkat-NFAT” value [11]?
The value was 0.29%.

What about the “% of MAGE-A4 signal, Jurkat-NFAT” value [12] of the same binder?
Its value is 0.36%.

What about the “% of MAGE-A4 signal, Jurkat-NFAT” value [13] of the same binder?
Its value is 0.48%.

What about the “% of MAGE-A4 signal, Jurkat-NFAT” value [14] of the same binder?
The value was 0.39%.

And the “% of MAGE-A4 signal, Jurkat-NFAT” value [15]?
Its value is 0.22%.

And the “% of MAGE-A4 signal, Jurkat-NFAT” value [16]?
Its value is 0.51%.

What about the “% of MAGE-A4 signal, Jurkat-NFAT” value [17] of the same binder?
The value was 0.43%.

What about the “% of MAGE-A4 signal, Jurkat-NFAT” value [18] of the same binder?
The value was 0.39%.

And the “% of MAGE-A4 signal, Jurkat-NFAT” value [19]?
Its value is 0.34%.

What about the “% of MAGE-A4 signal, Jurkat-NFAT” value [20] of the same binder?
Its value is 0.23%.

What about the “% of MAGE-A4 signal, Jurkat-NFAT” value [21] of the same binder?
Its value is 0.49%.

What about the “% of MAGE-A4 signal, Jurkat-NFAT” value [22] of the same binder?
The value was 0.45%.

What about the “% of MAGE-A4 signal, Jurkat-NFAT” value [23] of the same binder?
The value was 0.37%.

And the “% of MAGE-A4 signal, Jurkat-NFAT” value [24]?
Its value is 0.29%.

And the “% of MAGE-A4 signal, Jurkat-NFAT” value [25]?
The value was 0.24%.

And the “% of MAGE-A4 signal, Jurkat-NFAT” value [26]?
Its value is 0.17%.

What about the “% of MAGE-A4 signal, Jurkat-NFAT” value [27] of the same binder?
Its value is 0.26%.

What about the “% of MAGE-A4 signal, Jurkat-NFAT” value [28] of the same binder?
The value was 0.49%.

And the “EC50, Jurkat-NFAT activation” value [29]?
The value was 670 pM.

What about the “EC50, Jurkat-NFAT activation” value [30] of the same binder?
Its value is 13 nM.

And the “EC50, Jurkat-NFAT activation” value [31]?
Its value is 1440 pM.

What about the “EC50, Jurkat-NFAT activation” value [32] of the same binder?
The value was 687 pM.

And the “EC50, Jurkat-NFAT activation” value [33]?
The value was 626 pM.

What about the “EC50, Jurkat-NFAT activation” value [34] of the same binder?
The value was 738 pM.

And the “EC50, Jurkat-NFAT activation” value [35]?
Its value is 16.8 nM.

And the “EC50, Jurkat-NFAT activation” value [36]?
The value was 4.34 nM.

And the “EC50, Jurkat-NFAT activation” value [37]?
Its value is 1220 pM.

And the “EC50, Jurkat-NFAT activation” value [38]?
Its value is 3.94 nM.

And the “EC50, Jurkat-NFAT activation” value [39]?
Its value is 1030 pM.

B3: Molecule H (antibody, V domains shown)
VH: YVQLVESGGGLVKPGGSLRLSCAAPLPFTGLDMSWVRQAPGKGLEWVGSISPKGGSTYYNDNVLGRFTISRDNSKNTLYLQMNSLRAEDTAVYYCARDWGFFDLWGQGTLVTVSS
VL: B2 VL 1 with D1A, S31N, S52N, W53A, L54H, L56N, G57D, Y94H
notes: also called 007A09 IgG antibody
Which “EC50 (pM), activation of PGLALA-CAR-J cells in presence of MAGE-A4 peptide pulsed T2 cells” value (“EC50 (pM), activation” for short) [40] does the source give for B3 here?
The value was 8.6 pM.

And the Kd [41]?
Its Kd is 17.3 nM.

What about the koff [41] of the same binder?
The koff was 0.00426 s⁻¹.

What about the kon [41] of the same binder?
Its kon is 247000 M⁻¹ s⁻¹.

B4: Molecule I (antibody, V domains shown)
VH: B3 VH with V2P, P25R, L26Y, G30R, L104N
VL: B2 VL 1 with D1A, S31N, D50N, W53H, L54P, L56Y, G57D, Y94H
notes: also called 007D10 IgG antibody
What does the source list for B4?
EC50 (pM), activation of PGLALA-CAR-J cells in presence of MAGE-A4 peptide pulsed T2 cells [40]: 182 pM; Kd [41]: 96.4 nM; koff [41]: 0.00246 s⁻¹; kon [41]: 25500 M⁻¹ s⁻¹

B5: Molecule J (antibody, V domains shown)
VH: B2 VH 1
VL: B2 VL 1
notes: also called 057B04 IgG antibody
What does the source list for B5?
EC50 (pM), activation of PGLALA-CAR-J cells in presence of MAGE-A4 peptide pulsed T2 cells [40]: 208 pM; Kd [41]: 40.7 nM; koff [41]: 0.043 s⁻¹; kon [41]: 1.06e+06 M⁻¹ s⁻¹

B6: Molecule K (antibody, V domains shown)
VH: AQLVESGGGLVQPGGSLRLSCAASAYFSFKAMSWVRQAPGKGLEWVGSISPSGGSTYYNDNVLGRFTISRDNSKNTLYLQMNSLRAEDTAVYYCAKDVGFFDEWGQGTLVTVSS
VL: B2 VL 1 with W53I, L54R, E55D, L56I
notes: also called 057D03 IgG antibody
With B6 as the binder, how does the “EC50 (pM), activation” value [40] read?
The value was 18.2 pM.

And the Kd [41]?
Its Kd is 15.7 nM.

And the koff [41]?
The koff was 0.0408 s⁻¹.

What about the kon [41] of the same binder?
Its kon is 2.6e+06 M⁻¹ s⁻¹.

B7: Molecule L (antibody, V domains shown)
VH: not shown
VL: SSELTQDPAVSVALGQTVRITCQGDSLRSYYASWYQQKPGQAPVLVIYGKNNRPSGIPDRFSGSSSGNTASLTITGAQAEDEADYYCNSRQSSYYHHIVFGGGTKLTVL
notes: also called 032G09 IgG antibody
What does the source list for B7?
EC50 (pM), activation of PGLALA-CAR-J cells in presence of MAGE-A4 peptide pulsed T2 cells [40]: 83.7 pM; Kd [41]: 25.1 nM; koff [41]: 0.003 s⁻¹; kon [41]: 120000 M⁻¹ s⁻¹

B8: Molecule M (antibody, V domains shown)
VH: not shown
VL: B7 VL with G67S, Q91M, Y94R, I98D
notes: also called 034F05 IgG antibody
Which results are given for B8?
EC50 (pM), activation of PGLALA-CAR-J cells in presence of MAGE-A4 peptide pulsed T2 cells [40]: 19.2 pM; Kd [41]: 2.47 nM; koff [41]: 0.00111 s⁻¹; kon [41]: 450000 M⁻¹ s⁻¹

B9: Molecule N (antibody, V domains shown)
VH: B1 VH 1
VL: B1 VL 1
B9 was tested. Which “EC50 (pM), activation” value [40] did it give?
The value was 19.2 pM.
